Data reported in PMC10755794.
Changes are numbered by the printed parent chain. Names may count otherwise.

B1: Phenylpyruvate decarboxylase Aro10p (Aro10p^HJ) (Saccharomyces cerevisiae S288C; A377V/K527R) (protein)
chain: MAPVTIEKFVNQEERHLVSNRSATIPFGEYIFKRLLSIDTKSVFGVPGDFNLSLLEYLYSPSVESAGLRWVGTCNELNAAYAADGYSRYSNKIGCLITTYGVGELSALNGIAGSFAENVKVLHIVGVAKSIDSRSSNFSDRNLHHLVPQLHDSNFKGPNHKVYHDMVKDRVACSVAYLEDIETACDQVDNVIRDIYKYSKPGYIFVPADFADMSVTCDNLVNVPRISQQDCIVYPSENQLSDIINKITSWIYSSKTPAILGDVLTDRYGVSNFLNKLICKTGIWNFSTVMGKSVIDESNPTYMGQYNGKEGLKQVYEHFELCDLVLHFGVDINEINNGHYTFTYKPNAKIIQFHPNYIRLVDTRQGNEQMFKGINFVPILKELYKRIDVSKLSLQYDSNVTQYTNETMRLEDPTNGQSSIITQVHLQKTMPKFLNPGDVVVCETGSFQFSVRDFAFPSQLKYISQGFFLSIGMALPAALGVGIAMQDHSNAHINGGNVKEDYKPRLILFEGDGAAQMTIQELSTILRCNIPLEVIIWNNNGYTIERAIMGPTRSYNDVMSWKWTKLFEAFGDFDGKYTNSTLIQCPSKLALKLEELKNSNKRSGIELLEVKLGELDFPEQLKCMVEAAALKRNKK
B2: Phenylpyruvate decarboxylase Aro10p (Aro10p^S288C) (Saccharomyces cerevisiae S288C) (protein)
chain: B1 chain with V377A, R527K

Substrate: O=C(O)C(=O)Cc1ccccc1
Assay: purified protein
Assay type: biochemical, Saccharomyces cerevisiae
Details: ThDP, Mg2+

Row | Protein | Km [µM] | Vmax [µmol/min/mg] | kcat/Km [M⁻¹ s⁻¹]
1 | B1 | 86.36 ± 6.18 | 2.11 | 595000 ± 33500
2 | B2 | 102.24 ± 2.15 | 2.26 | 597000 ± 20500
